Values joined by “and” are separate entries in the source; they are usually repeats but may differ in a detail not shown here. Identical values can stand only once. Where no end group is shown, it is not given here.
What was measured:
human GLP-1 receptor [1] = molecular target: T1, human GLP-1 receptor (Homo sapiens, UniProt P43220); assay: In vitro potency assay (GLP-1 receptor signaling, CRE-BLAM reporter); assay type: cell-based; details: for GLP-1 receptor activation relative to Val^8-GLP-1 (7-37) OH: HEK-293 Aurora CRE-BLAM cells expressing the human GLP-1 receptor, EC50-based potency relative to Val^8-GLP-1 (7-37)OH (=1.0), several values in a cell are repeat determinations; for potency higher than Val^8-GLP-1 (7-37)OH: in vitro potency relative to Val^8-GLP-1 (7-37)OH
T1 construct: expressed in transfected cells; host or cells: HEK-293 Aurora CRE-BLAM cells
Text: The extent of the induction of cAMP levels can then be measured using a cAMP response element which drives the expression of a reporter gene such as luciferase or beta lactamase.
These HEK-293 cells have stably integrated a DNA vector having a cAMP response element (CRE) driving expression of the β-lactamase (BLAM) gene. […] The assay is further described in Zlokarnik, et al. (1998) Science 279:84-88 (See also Example 3).
The day after seeding, the medium is replaced with plasma free medium.

human GLP-1 receptor [2] = molecular target: human GLP-1 receptor (human, UniProt P43220 24-463); assay: cell-based or functional assay

T1 sequence (P43220 24-463): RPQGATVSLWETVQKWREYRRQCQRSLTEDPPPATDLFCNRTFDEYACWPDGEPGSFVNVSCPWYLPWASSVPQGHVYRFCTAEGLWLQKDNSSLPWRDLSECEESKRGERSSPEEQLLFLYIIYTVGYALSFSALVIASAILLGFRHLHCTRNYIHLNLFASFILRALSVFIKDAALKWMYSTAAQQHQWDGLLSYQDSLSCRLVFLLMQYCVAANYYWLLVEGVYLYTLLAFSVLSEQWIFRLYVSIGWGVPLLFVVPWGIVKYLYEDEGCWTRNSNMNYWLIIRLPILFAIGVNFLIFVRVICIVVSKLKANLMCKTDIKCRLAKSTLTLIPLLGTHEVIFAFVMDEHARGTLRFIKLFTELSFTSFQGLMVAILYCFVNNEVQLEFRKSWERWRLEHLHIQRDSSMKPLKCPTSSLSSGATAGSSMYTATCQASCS

Val^8-Glu^22-Val^25-GLP-1 (7-37) OH (HVEGTFTSDVSSYLEEQAVKEFIAWLVKGRG)
GLP-1 receptor activation relative to Val^8-GLP-1 (7-37) OH (human GLP-1 receptor [1]): 4.7 and 2.9

Val^8-Glu^30-GLP-1 (7-37) OH (HVEGTFTSDVSSYLEGQAAKEFIEWLVKGRG)
GLP-1 receptor activation relative to Val^8-GLP-1 (7-37) OH (human GLP-1 receptor [1]): 0.6 and 0.7

Val^8-Glu^22-Ile^33-GLP-1 (7-37) OH (HVEGTFTSDVSSYLEEQAAKEFIAWLIKGRG)
GLP-1 receptor activation relative to Val^8-GLP-1 (7-37) OH (human GLP-1 receptor [1]): 4.7 and 3.8 and 3.4

Val^8-Trp^16-Glu^22-GLP-1 (7-37) OH (HVEGTFTSDWSSYLEEQAAKEFIAWLVKGRG)
GLP-1 receptor activation relative to Val^8-GLP-1 (7-37) OH (human GLP-1 receptor [1]): 4.9 and 4.6

Val^8-Tyr^18-Glu^22-GLP-1 (7-37) OH (HVEGTFTSDVSYYLEEQAAKEFIAWLVKGRG)
GLP-1 receptor activation relative to Val^8-GLP-1 (7-37) OH (human GLP-1 receptor [1]): 5.1 and 5.9

Val^8-Glu^22-Val^25-Ile^33-GLP-1 (7-37) OH (HVEGTFTSDVSSYLEEQAVKEFIAWLIKGRG)
GLP-1 receptor activation relative to Val^8-GLP-1 (7-37) OH (human GLP-1 receptor [1]): 4.9 and 5.8 and 6.7

Val^8-His^37-GLP-1 (7-37) OH (HVEGTFTSDVSSYLEGQAAKEFIAWLVKGRH)
GLP-1 receptor activation relative to Val^8-GLP-1 (7-37) OH (human GLP-1 receptor [1]): 0.7 and 1.2

Exendin-4 [reference compound]
potency higher than Val^8-GLP-1 (7-37)OH (human GLP-1 receptor [1]): approximately 5 fold

Val^8-Tyr^12-GLP-1 (7-37) OH (HVEGTYTSDVSSYLEGQAAKEFIAWLVKGRG)
GLP-1 receptor activation relative to Val^8-GLP-1 (7-37) OH (human GLP-1 receptor [1]): 1.7 and 1.8

Val^8-Glu^22-GLP-1 (7-37) OH (HVEGTFTSDVSSYLEEQAAKEFIAWLVKGRG)
potency higher than Val^8-GLP-1 (7-37)OH (human GLP-1 receptor [1]): approximately 3 fold

Val^8-Lys^33-Asn^34-GLP-1 (7-37) OH
GLP-1 receptor activation relative to Val^8-GLP-1 (7-37) OH (human GLP-1 receptor [1]): 0.2

Val^8-Tyr^16-Glu^22-GLP-1 (7-37) OH (HVEGTFTSDYSSYLEEQAAKEFIAWLVKGRG)
GLP-1 receptor activation relative to Val^8-GLP-1 (7-37) OH (human GLP-1 receptor [1]): 3.6 and 3.8

Val^8-Tyr^16-GLP-1 (7-37) OH (HVEGTFTSDYSSYLEGQAAKEFIAWLVKGRG)
GLP-1 receptor activation relative to Val^8-GLP-1 (7-37) OH (human GLP-1 receptor [1]): 2.6 and 2.5

HVEGTFTSDVSSYLEEKAAKEFIAWLVKGRG-OH [Val^8-Glu^22-Lys^23-GLP-1 (7-37) OH]
GLP-1 receptor activation relative to Val^8-GLP-1 (7-37) OH (human GLP-1 receptor [2]): 3.1 relative to Val^8-GLP-1 (7-37) OH

HVEGTFTSDVSSYLEGQAAKEFIAWLKNGRG-OH [Val^8-Lys^33-Asn^34-GLP-1 (7-37) OH]
GLP-1 receptor activation relative to Val^8-GLP-1 (7-37) OH (human GLP-1 receptor [2]): 0.2 relative to Val^8-GLP-1 (7-37) OH

HVEGTFTSDVSSYLEKQAAKEFIEWLVKGRG-OH [Val^8-Lys^22-Glu^30-GLP-1 (7-37) OH]
GLP-1 receptor activation relative to Val^8-GLP-1 (7-37) OH (human GLP-1 receptor [2]): 0.8 relative to Val^8-GLP-1 (7-37) OH

HVEGTFTSDVSSYLEGQAAKEFIAWLKVGRG-OH [Val^8-Lys^33-Val^34-GLP-1 (7-37) OH]
GLP-1 receptor activation relative to Val^8-GLP-1 (7-37) OH (human GLP-1 receptor [2]): 0.2 relative to Val^8-GLP-1 (7-37) OH

HVEGTFTSDVSSYLEKEAAKEFIAWLVKGRG-OH [Val^8-Lys^22-Glu^23-GLP-1 (7-37) OH]
GLP-1 receptor activation relative to Val^8-GLP-1 (7-37) OH (human GLP-1 receptor [2]): 0.8 relative to Val^8-GLP-1 (7-37) OH

HVEGTFTSDVSSYLEGQAAKEFIAWLVKGGP-NH2 [Val^8-Gly^36-Pro^37-GLP-1 (7-37) NH2]
GLP-1 receptor activation relative to Val^8-GLP-1 (7-37) OH (human GLP-1 receptor [2]): 1.2 relative to Val^8-GLP-1 (7-37) OH

HVEGTFTSDVSSYLEGQAAKEFIAWLVGKRG-OH [Val^8-Gly^34-Lys^35-GLP-1 (7-37) OH]
GLP-1 receptor activation relative to Val^8-GLP-1 (7-37) OH (human GLP-1 receptor [2]): 0.7 relative to Val^8-GLP-1 (7-37) OH

HVEGTFTSDLSSYLEGQAAEEFIAWLVKGRG-OH [Val^8-Leu^16-Glu^26-GLP-1 (7-37) OH]
GLP-1 receptor activation relative to Val^8-GLP-1 (7-37) OH (human GLP-1 receptor [2]): 0.5 relative to Val^8-GLP-1 (7-37) OH

From patent US20040235726A1, “Glucagon-like peptides (glp-1) and treatment of respiratory distress” (priority 2001, published 2004)
